# Measurements as given in PMC8028696 (Journal of Molecular Biology, 2021).
# B1: IgG 15036 (antibody, V domains shown)
# VH: EVQLVESGGGLVQPGGSLRLSCAASGFDFTAYDIHWVRQAPGKGLEWVAGISASGGYTAYADSVKGRFTISADTSKNTAYLQMNSLRAEDTAVYYCARDGFHSYALDYWGQGTLVTVSS
# VL: DIQMTQSPSSLSASVGDRVTITCRASQSVSSAVAWYQQKPGKAPKLLIYSASSLYSGVPSRFSGSRSGTDFTLTISSLQPEDFATYYCQQWYSLFTFGQGTKVEIK
# B2: IgG 15046 (antibody, V domains shown)
# VH: EVQLVESGGGLVQPGGSLRLSCAASGFDFGSYAMHWVRQAPGKGLEWVAGIYASGGYTDYADSVKGRFTISADTSKNTAYLQMNSLRAEDTAVYYCARGWSYYWGFDYWGQGTLVTVSS
# VL: DIQMTQSPSSLSASVGDRVTITCRASQSVSSAVAWYQQKPGKAPKLLIYSASSLYSGVPSRFSGSRSGTDFTLTISSLQPEDFATYYCQQYDYGLFTFGQGTKVEIK
# Molecular target: SARS-CoV-2 RBD (SARS-CoV-2 (P0DTC2 reference)); strain …, UniProt P0DTC2, biotin (site-specific, BirA, on the AviTag))
# Experiment: BLI
binder,measurement,value
B1,Kd,2.2 ± 0.2 nM
B2,Kd,3.7 ± 0.1 nM
